Laboratory results from the Immune Epitope Database (IEDB).
Values belong to the sequence of their own block, whether it stands above or below them.

Columns and labels:
[1] = target: HLA-B*07:02; assay: IEDB peptide-MHC binding, purified MHC/competitive/radioactivity; ≥ and ≤ were set here for values at or beyond the usual limits of such assays
[2] = target: HLA-A*24:02; assay: as above; conditions: source organism: Homo sapiens
[3] = target: HLA-C*05:01; assay: IEDB peptide-MHC binding, purified MHC/direct/fluorescence; filed as Kd, often an IC50 or EC50 that approximates it; ≥ and ≤ were set here for values at or beyond the usual limits of such assays
[4] = target: HLA-C*06:02; assay: as above; conditions: source organism: Homo sapiens
[5] = target: HLA-B*73:01; assay: as above; conditions: source organism: Mus musculus
[6] = target: HLA-C*07:02; assay: as above; conditions: source organism: Homo sapiens
[7] = target: HLA-B*83:01; assay: IEDB peptide-MHC binding, purified MHC/competitive/fluorescence; filed as Kd, often an IC50 or EC50 that approximates it; ≥ and ≤ were set here for values at or beyond the usual limits of such assays
[8] = target: HLA-A*68:23; assay: as above
[9] = target: HLA-B*45:06; assay: as above
[10] = target: HLA-A*32:15; assay: as above; conditions: source organism: Homo sapiens
[11] = target: HLA-B*15:42; assay: as above
[12] = target: HLA-C*03:03; assay: IEDB peptide-MHC binding, purified MHC/direct/fluorescence; filed as Kd, often an IC50 or EC50 that approximates it; ≥ and ≤ were set here for values at or beyond the usual limits of such assays; conditions: source organism: Rickettsia bellii RML369-C
[13] = target: HLA-B*57:01; assay: IEDB peptide-MHC binding, purified MHC/competitive/fluorescence; filed as Kd, often an IC50 or EC50 that approximates it; ≥ and ≤ were set here for values at or beyond the usual limits of such assays
[14] = target: HLA-A*03:01; assay: as above; conditions: source organism: Rickettsia bellii RML369-C
[15] = target: HLA-A*02:11; assay: as above; conditions: source organism: Rickettsia bellii RML369-C
[16] = target: HLA-B*27:03; assay: as above
[17] = target: HLA-A*29:02; assay: as above; conditions: source organism: Rickettsia bellii RML369-C
[18] = target: HLA-B*18:01; assay: as above; conditions: source organism: Rickettsia bellii RML369-C
[19] = target: HLA-A*02:01; assay: as above
[20] = target: HLA-A*80:01; assay: as above; conditions: source organism: Rickettsia bellii RML369-C
[21] = target: HLA-A*02:16; assay: IEDB peptide-MHC binding, purified MHC/direct/fluorescence; filed as Kd, often an IC50 or EC50 that approximates it; ≥ and ≤ were set here for values at or beyond the usual limits of such assays; conditions: source organism: Choclo virus
[22] = target: HLA-A*03:01; assay: as above; conditions: source organism: Choclo virus
[23] = target: HLA-A*02:11; assay: as above; conditions: source organism: Choclo virus
[24] = target: HLA-A*02:12; assay: as above; conditions: source organism: Choclo virus
[25] = target: HLA-A*23:01; assay: as above; conditions: source organism: Choclo virus
[26] = target: HLA-A*68:02; assay: as above; conditions: source organism: Choclo virus
[27] = target: HLA-A*02:19; assay: as above; conditions: source organism: Choclo virus
[28] = target: HLA-B*07:02; assay: as above; conditions: source organism: Orthohantavirus andesense
[29] = target: HLA-A*24:03; assay: as above; conditions: source organism: Choclo virus
[30] = target: HLA-A*02:03; assay: as above; conditions: source organism: Choclo virus
[31] = target: HLA-B*35:01; assay: IEDB peptide-MHC binding, purified MHC/competitive/fluorescence; filed as Kd, often an IC50 or EC50 that approximates it; ≥ and ≤ were set here for values at or beyond the usual limits of such assays; conditions: source organism: Choclo virus
[32] = target: HLA-A*69:01; assay: as above; conditions: source organism: Choclo virus
[33] = target: HLA-B*15:17; assay: as above; conditions: source organism: Choclo virus
[34] = target: HLA-A*26:01; assay: as above; conditions: source organism: Choclo virus
[35] = target: HLA-B*15:01; assay: as above; conditions: source organism: Choclo virus
[36] = target: HLA-B*46:01; assay: as above; conditions: source organism: Choclo virus
[37] = target: HLA-B*51:01; assay: as above; conditions: source organism: Choclo virus
[38] = target: HLA-B*39:01; assay: as above; conditions: source organism: Choclo virus
[39] = target: HLA-A*02:01; assay: IEDB peptide-MHC binding, purified MHC/competitive/radioactivity; filed as Kd, often an IC50 or EC50 that approximates it; ≥ and ≤ were set here for values at or beyond the usual limits of such assays; conditions: source organism: Human immunodeficiency virus 1
[40] = source organism: Rickettsia bellii RML369-C

Sequence: FATCGIFAL
- IC50 ([1]; source organism: Lymphocytic choriomeningitis virus (strain Armstrong) (clone 53b)): 6.23 µM

- IC50 [2]: 0.014 µM
Sequence: TYSVSFDSLF

- Kd ([3]; source organism: Homo sapiens): ≥ 20 µM
- Kd [4]: ≥ 20 µM
- Kd [5]: 6 µM
- Kd [6]: ≥ 20 µM
- Kd ([7]; source organism: Homo sapiens): 0.069 µM
- Kd ([8]; source organism: Homo sapiens): 0.271 µM
- Kd ([9]; source organism: Homo sapiens): ≥ 5 µM
- Kd [10]: 0.295 µM
- Kd ([11]; source organism: Homo sapiens): ≥ 5 µM
Sequence: MPMKGRFPI

- IC50 [2]: 0.067 µM
Sequence: NYARTEDFF

Sequence: FTIGNMFSL
- Kd [3, 40]: ≥ 20 µM
- Kd [12]: 0.055 µM
- Kd [13, 40]: ≥ 20 µM
- Kd [14]: ≥ 20 µM
- Kd [15]: 0.0059 µM
- Kd [16, 40]: ≥ 20 µM
- Kd [17]: 0.738 µM
- Kd [18]: ≥ 20 µM
- Kd [19, 40]: 0.0244 µM
- Kd [20]: ≥ 20 µM

Sequence: LPSSSSYSY
- Kd [21]: ≥ 20 µM
- Kd [22]: ≥ 20 µM
- Kd [23]: ≥ 20 µM
- Kd [24]: ≥ 20 µM
- Kd [25]: ≥ 20 µM
- Kd [26]: ≥ 20 µM
- Kd [27]: ≥ 20 µM
- Kd [28]: 14 µM
- Kd [29]: ≥ 20 µM
- Kd [30]: ≥ 20 µM
- Kd ([13]; source organism: Choclo virus): ≥ 20 µM
- Kd ([7]; source organism: Choclo virus): 0.747 µM
- Kd [31]: ≤ 0.0001 µM
- Kd ([8]; source organism: Choclo virus): 1.6 µM
- Kd ([16]; source organism: Choclo virus): ≥ 20 µM
- Kd [32]: ≥ 20 µM
- Kd [33]: ≥ 20 µM
- Kd ([19]; source organism: Choclo virus): ≥ 20 µM
- Kd ([9]; source organism: Choclo virus): ≥ 5 µM
- Kd ([11]; source organism: Choclo virus): ≥ 5 µM
- Kd [34]: ≥ 20 µM
- Kd [35]: ≥ 20 µM
- Kd [36]: ≥ 20 µM
- Kd [37]: ≥ 20 µM
- Kd [38]: ≥ 20 µM

Sequence: FPVRPQVPL
- Kd [39]: ≥ 35 µM
- IC50 ([1]; source organism: Human immunodeficiency virus 1): 0.016 µM
